According to publication PMC2064708:
Each block holds one substance with its values, some of them ahead of it.

Key:
[1] = biological target: Shp2 N-terminal SH2-containing domain (UniProt Q06124); experiment: far-Western of β4 IP with GST-Shp2; details: reference: wild-type β4
Shp2 = Shp2 (UniProt Q06124); experiment: co-IP, anti-β4 IP, Shp2 blot; details: reference: wild-type β4; sites Y1257,Y1494

binding against the reference ([1]; sites Y1257,Y1494): weaker
Substance: β4 integrin (from UniProt P16144-2) β4-ΔShp2D (Y1257F, Y1494F)

binding against the reference ([1]; sites Y1440): weaker
Substance: β4 integrin (from UniProt P16144-2) β4-Y1440F

binding against the reference (Shp2): weaker
Substance: β4 integrin (from UniProt P16144-2) double mutant Y1257F/Y1494F
